Consider eleven molecules from patent publication US10941182 (Amgen, dated 2021).

To fix the notation:
T1: human APJ receptor (human, UniProt P35414 1-380)
T1 sequence (looked up): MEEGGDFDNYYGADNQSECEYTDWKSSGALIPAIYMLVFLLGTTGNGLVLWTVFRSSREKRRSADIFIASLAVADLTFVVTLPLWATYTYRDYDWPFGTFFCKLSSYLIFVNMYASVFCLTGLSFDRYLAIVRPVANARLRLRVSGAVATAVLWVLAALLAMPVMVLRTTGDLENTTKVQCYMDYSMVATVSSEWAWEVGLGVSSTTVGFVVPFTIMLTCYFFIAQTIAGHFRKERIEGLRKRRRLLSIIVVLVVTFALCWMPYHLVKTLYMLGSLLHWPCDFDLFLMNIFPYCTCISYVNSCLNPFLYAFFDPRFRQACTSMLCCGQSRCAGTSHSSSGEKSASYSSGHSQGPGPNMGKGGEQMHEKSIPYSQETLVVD

T2: rat APJ receptor (rat, UniProt Q9JHG3 1-377)
T2 sequence (looked up): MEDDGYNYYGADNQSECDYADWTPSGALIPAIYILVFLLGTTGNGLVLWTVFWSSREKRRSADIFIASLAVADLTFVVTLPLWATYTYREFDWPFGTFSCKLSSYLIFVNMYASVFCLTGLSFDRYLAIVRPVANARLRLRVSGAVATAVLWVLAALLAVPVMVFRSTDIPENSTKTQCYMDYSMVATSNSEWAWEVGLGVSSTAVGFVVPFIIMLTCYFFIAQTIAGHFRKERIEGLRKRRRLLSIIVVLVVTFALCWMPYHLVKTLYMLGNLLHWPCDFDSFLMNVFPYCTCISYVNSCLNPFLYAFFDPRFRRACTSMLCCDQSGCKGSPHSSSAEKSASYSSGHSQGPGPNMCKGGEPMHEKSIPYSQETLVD

B1: apelin polypeptide SEQ ID NO: 225 (peptide)
peptide: Tridecanoyl-[γGlu][AEEA][AEEA]Q[hArg]P[dR][NMeL]SHKG[Oic][Nle]P[Phe(4-Cl)]-OH
SMILES: CCCCCCCCCCCCC(=O)N[C@@H](CCC(=O)NCCOCCOCC(=O)NCCOCCOCC(=O)N[C@@H](CCC(N)=O)C(=O)N[C@@H](CCCCNC(=N)N)C(=O)N1CCC[C@H]1C(=O)N[C@H](CCCNC(=N)N)C(=O)N(C)[C@@H](CC(C)C)C(=O)N[C@@H](CO)C(=O)N[C@@H](Cc1c[nH]cn1)C(=O)N[C@@H](CCCCN)C(=O)NCC(=O)N1[C@H](C(=O)N[C@@H](CCCC)C(=O)N2CCC[C@H]2C(=O)N[C@@H](Cc2ccc(Cl)cc2)C(=O)O)C[C@@H]2CCCC[C@@H]21)C(=O)O
B2: apelin polypeptide SEQ ID NO: 219 (peptide)
peptide: Tridecanoyl-[γGlu][AEEA][AEEA][dR]Q[hArg]P[dR][NMeL]SHKG[Oic][Phe(4-I)]P[Phe(4-Cl)]-OH
SMILES: CCCCCCCCCCCCC(=O)N[C@@H](CCC(=O)NCCOCCOCC(=O)NCCOCCOCC(=O)N[C@H](CCCNC(=N)N)C(=O)N[C@@H](CCC(N)=O)C(=O)N[C@@H](CCCCNC(=N)N)C(=O)N1CCC[C@H]1C(=O)N[C@H](CCCNC(=N)N)C(=O)N(C)[C@@H](CC(C)C)C(=O)N[C@@H](CO)C(=O)N[C@@H](Cc1c[nH]cn1)C(=O)N[C@@H](CCCCN)C(=O)NCC(=O)N1[C@H](C(=O)N[C@@H](Cc2ccc(I)cc2)C(=O)N2CCC[C@H]2C(=O)N[C@@H](Cc2ccc(Cl)cc2)C(=O)O)C[C@@H]2CCCC[C@@H]21)C(=O)O
B3: apelin polypeptide SEQ ID NO: 223 (peptide)
peptide: Tridecanoyl-[γGlu][AEEA][AEEA]QRP[hArg][Cha]SHKG[Oic][Phe(4-I)]P[dBip]-OH
SMILES: CCCCCCCCCCCCC(=O)N[C@@H](CCC(=O)NCCOCCOCC(=O)NCCOCCOCC(=O)N[C@@H](CCC(N)=O)C(=O)N[C@@H](CCCNC(=N)N)C(=O)N1CCC[C@H]1C(=O)N[C@@H](CCCCNC(=N)N)C(=O)N[C@@H](CC1CCCCC1)C(=O)N[C@@H](CO)C(=O)N[C@@H](Cc1c[nH]cn1)C(=O)N[C@@H](CCCCN)C(=O)NCC(=O)N1[C@H](C(=O)N[C@@H](Cc2ccc(I)cc2)C(=O)N2CCC[C@H]2C(=O)N[C@H](Cc2ccc(-c3ccccc3)cc2)C(=O)O)C[C@@H]2CCCC[C@@H]21)C(=O)O
B4: apelin polypeptide SEQ ID NO: 222 (peptide)
peptide: Tridecanoyl-[γGlu][AEEA][AEEA]QRP[hArg][NMeL]SHKG[Oic][Phe(4-I)]P[dBip]-OH
SMILES: CCCCCCCCCCCCC(=O)N[C@@H](CCC(=O)NCCOCCOCC(=O)NCCOCCOCC(=O)N[C@@H](CCC(N)=O)C(=O)N[C@@H](CCCNC(=N)N)C(=O)N1CCC[C@H]1C(=O)N[C@@H](CCCCNC(=N)N)C(=O)N(C)[C@@H](CC(C)C)C(=O)N[C@@H](CO)C(=O)N[C@@H](Cc1c[nH]cn1)C(=O)N[C@@H](CCCCN)C(=O)NCC(=O)N1[C@H](C(=O)N[C@@H](Cc2ccc(I)cc2)C(=O)N2CCC[C@H]2C(=O)N[C@H](Cc2ccc(-c3ccccc3)cc2)C(=O)O)C[C@@H]2CCCC[C@@H]21)C(=O)O
B5: apelin polypeptide SEQ ID NO: 221 (peptide)
peptide: Tridecanoyl-[γGlu][AEEA][AEEA][dR]Q[hArg]P[dR][Cha]SHKG[Oic][Nle]P[Phe(4-Cl)]-OH
SMILES: CCCCCCCCCCCCC(=O)N[C@@H](CCC(=O)NCCOCCOCC(=O)NCCOCCOCC(=O)N[C@H](CCCNC(=N)N)C(=O)N[C@@H](CCC(N)=O)C(=O)N[C@@H](CCCCNC(=N)N)C(=O)N1CCC[C@H]1C(=O)N[C@H](CCCNC(=N)N)C(=O)N[C@@H](CC1CCCCC1)C(=O)N[C@@H](CO)C(=O)N[C@@H](Cc1c[nH]cn1)C(=O)N[C@@H](CCCCN)C(=O)NCC(=O)N1[C@H](C(=O)N[C@@H](CCCC)C(=O)N2CCC[C@H]2C(=O)N[C@@H](Cc2ccc(Cl)cc2)C(=O)O)C[C@@H]2CCCC[C@@H]21)C(=O)O
B6: apelin polypeptide SEQ ID NO: 220 (peptide)
peptide: Tridecanoyl-[γGlu][AEEA][AEEA][dR]Q[hArg]P[dR][NMeL]SHKG[Oic][Nle]P[dBip]-OH
SMILES: CCCCCCCCCCCCC(=O)N[C@@H](CCC(=O)NCCOCCOCC(=O)NCCOCCOCC(=O)N[C@H](CCCNC(=N)N)C(=O)N[C@@H](CCC(N)=O)C(=O)N[C@@H](CCCCNC(=N)N)C(=O)N1CCC[C@H]1C(=O)N[C@H](CCCNC(=N)N)C(=O)N(C)[C@@H](CC(C)C)C(=O)N[C@@H](CO)C(=O)N[C@@H](Cc1c[nH]cn1)C(=O)N[C@@H](CCCCN)C(=O)NCC(=O)N1[C@H](C(=O)N[C@@H](CCCC)C(=O)N2CCC[C@H]2C(=O)N[C@H](Cc2ccc(-c3ccccc3)cc2)C(=O)O)C[C@@H]2CCCC[C@@H]21)C(=O)O
B7: apelin polypeptide SEQ ID NO: 18 (peptide)
peptide: Ac-[dR][hArg]Q[hArg]P[dR][NMeL]SHKG[Oic][Phe(4-I)]P[dBip]-OH
B8: apelin polypeptide SEQ ID NO: 217 (peptide)
peptide: Tridecanoyl-[γGlu][AEEA][AEEA][dR]QRP[hArg][Cha]SHKG[Oic][Phe(4-I)]P[dBip]-OH
SMILES: CCCCCCCCCCCCC(=O)N[C@@H](CCC(=O)NCCOCCOCC(=O)NCCOCCOCC(=O)N[C@H](CCCNC(=N)N)C(=O)N[C@@H](CCC(N)=O)C(=O)N[C@@H](CCCNC(=N)N)C(=O)N1CCC[C@H]1C(=O)N[C@@H](CCCCNC(=N)N)C(=O)N[C@@H](CC1CCCCC1)C(=O)N[C@@H](CO)C(=O)N[C@@H](Cc1c[nH]cn1)C(=O)N[C@@H](CCCCN)C(=O)NCC(=O)N1[C@H](C(=O)N[C@@H](Cc2ccc(I)cc2)C(=O)N2CCC[C@H]2C(=O)N[C@H](Cc2ccc(-c3ccccc3)cc2)C(=O)O)C[C@@H]2CCCC[C@@H]21)C(=O)O
B9: apelin polypeptide SEQ ID NO: 224 (peptide)
peptide: Tridecanoyl-[γGlu][AEEA][AEEA]QRP[dR][Cha]SHKG[Oic][Phe(4-I)]P[dBip]-OH
SMILES: CCCCCCCCCCCCC(=O)N[C@@H](CCC(=O)NCCOCCOCC(=O)NCCOCCOCC(=O)N[C@@H](CCC(N)=O)C(=O)N[C@@H](CCCNC(=N)N)C(=O)N1CCC[C@H]1C(=O)N[C@H](CCCNC(=N)N)C(=O)N[C@@H](CC1CCCCC1)C(=O)N[C@@H](CO)C(=O)N[C@@H](Cc1c[nH]cn1)C(=O)N[C@@H](CCCCN)C(=O)NCC(=O)N1[C@H](C(=O)N[C@@H](Cc2ccc(I)cc2)C(=O)N2CCC[C@H]2C(=O)N[C@H](Cc2ccc(-c3ccccc3)cc2)C(=O)O)C[C@@H]2CCCC[C@@H]21)C(=O)O
B10: apelin polypeptide SEQ ID NO: 226 (peptide)
peptide: Tridecanoyl-[γGlu][AEEA][AEEA]Q[hArg]P[dR][NMeL]SHKG[Oic][Phe(4-I)]P[Phe(4-Cl)]-OH
SMILES: CCCCCCCCCCCCC(=O)N[C@@H](CCC(=O)NCCOCCOCC(=O)NCCOCCOCC(=O)N[C@@H](CCC(N)=O)C(=O)N[C@@H](CCCCNC(=N)N)C(=O)N1CCC[C@H]1C(=O)N[C@H](CCCNC(=N)N)C(=O)N(C)[C@@H](CC(C)C)C(=O)N[C@@H](CO)C(=O)N[C@@H](Cc1c[nH]cn1)C(=O)N[C@@H](CCCCN)C(=O)NCC(=O)N1[C@H](C(=O)N[C@@H](Cc2ccc(I)cc2)C(=O)N2CCC[C@H]2C(=O)N[C@@H](Cc2ccc(Cl)cc2)C(=O)O)C[C@@H]2CCCC[C@@H]21)C(=O)O
B11: apelin polypeptide SEQ ID NO: 218 (peptide)
peptide: Tridecanoyl-[γGlu][AEEA][AEEA][dR]Q[hArg]P[dR][NMeL]SHKG[Oic][Nle]P[Phe(4-Cl)]-OH
SMILES: CCCCCCCCCCCCC(=O)N[C@@H](CCC(=O)NCCOCCOCC(=O)NCCOCCOCC(=O)N[C@H](CCCNC(=N)N)C(=O)N[C@@H](CCC(N)=O)C(=O)N[C@@H](CCCCNC(=N)N)C(=O)N1CCC[C@H]1C(=O)N[C@H](CCCNC(=N)N)C(=O)N(C)[C@@H](CC(C)C)C(=O)N[C@@H](CO)C(=O)N[C@@H](Cc1c[nH]cn1)C(=O)N[C@@H](CCCCN)C(=O)NCC(=O)N1[C@H](C(=O)N[C@@H](CCCC)C(=O)N2CCC[C@H]2C(=O)N[C@@H](Cc2ccc(Cl)cc2)C(=O)O)C[C@@H]2CCCC[C@@H]21)C(=O)O

Starred links: 1 amine or outer side, 2 acyl side, 3 side chain; linkers in the order of their positions; H or OH if unused. Non-standard residues stand in square brackets, D forms with d. *: point of attachment. dBip = N[C@H](Cc1ccc(-c2ccccc2)cc1)C(=O)O; Oic = O=C(O)[C@@H]1C[C@@H]2CCCC[C@@H]2N1; Phe(4-Cl) = N[C@@H](Cc1ccc(Cl)cc1)C(=O)O; Phe(4-I) = N[C@@H](Cc1ccc(I)cc1)C(=O)O; γGlu = O=C(O)[C@H](CCC(=O)[*:2])N[*:1]; Tridecanoyl = CCCCCCCCCCCCC(=O)*; hArg = N=C(N)NCCCC[C@H](N)C(=O)O; Cha = N[C@@H](CC1CCCCC1)C(=O)O; NMeL = CN[C@@H](CC(C)C)C(=O)O; Nle = CCCC[C@H](N)C(=O)O; AEEA = NCCOCCOCC(=O)O

The first assay addresses T1, human APJ receptor. Briefly: cell-based or functional assay.
Take B1: the “EC50 Human APJ Receptor” value turned out to be 3.02 nM.

As for B2, the “EC50 Human APJ Receptor” value stood at 10.1 nM.

In the case of B3, the “EC50 Human APJ Receptor” value was determined as 11.3 nM.

B4: the “EC50 Human APJ Receptor” value was found to be 1.23 nM.

Take B5: the “EC50 Human APJ Receptor” value worked out at 0.196 nM.

On to B6, for which the “EC50 Human APJ Receptor” value worked out at 2.72 nM.

On to B7, for which the “EC50 Human APJ Receptor” value is 0.468 nM.

On to B8, for which the “EC50 Human APJ Receptor” value is 4.67 nM.

For the molecule B9, the “EC50 Human APJ Receptor” value is 28.2 nM.

In the case of B10, the “EC50 Human APJ Receptor” value amounted to 20.8 nM.

For B11, the “EC50 Human APJ Receptor” value was found to be 0.841 nM.

A further assay addresses T2, rat APJ receptor. The assay is described as follows: cell-based or functional assay.
Take B1: the “EC50 Rat APJ Receptor” value was determined as 47.9 nM.

Regarding B2, the “EC50 Rat APJ Receptor” value amounted to 45 nM.

Regarding B3, the “EC50 Rat APJ Receptor” value worked out at 52.8 nM.

B4: the “EC50 Rat APJ Receptor” value was 6.87 nM.

With B5, the “EC50 Rat APJ Receptor” value was found to be 1.93 nM.

As for B6, the “EC50 Rat APJ Receptor” value was determined as 27.6 nM.

B7: the “EC50 Rat APJ Receptor” value turned out to be 0.523 nM.

In the case of B8, the “EC50 Rat APJ Receptor” value was found to be 8.83 nM.

As for B9, the “EC50 Rat APJ Receptor” value amounted to 102 nM.

B10: the “EC50 Rat APJ Receptor” value came to 91 nM.

Turning to B11, the “EC50 Rat APJ Receptor” value came to 14.9 nM.
